Here are results for 16 molecules from patent US20260167699A1 (Chugai, published 2026).

The test has as its target T1, FcγRIIIa (human, UniProt P08637 17-208).
T1 construct: extracellular domain; also called 3a; FcγRIIIa extracellular domain
Nature of the test: SPR (Biacore).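 Also: antibody variants captured on an SPR sensor chip, with FcγRIIIa passed over as analyte in HBS-EP+ buffer at 25 °C.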 A general note: Surface plasmon resonance follows binding to a sensor surface in real time, without labels.

T1 sequence (P08637 other isoform, or with tags, fused parts or gaps): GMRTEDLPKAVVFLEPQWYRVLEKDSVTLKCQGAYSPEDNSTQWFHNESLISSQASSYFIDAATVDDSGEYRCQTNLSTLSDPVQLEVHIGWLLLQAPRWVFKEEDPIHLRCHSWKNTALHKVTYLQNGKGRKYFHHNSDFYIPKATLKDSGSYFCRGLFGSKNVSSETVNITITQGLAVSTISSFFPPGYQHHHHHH

B1: GpH7-A5/GpH7-B3 variant K326_07I/GpL16-k0 (antibody, human IgG1, kappa)
heavy 1: not shown
heavy 2: not shown
light: DIVMTQSPLSLPVTPGEPASISCQASESLVHSNRNTYLHWYLQKPGQSPQLLIYKVSNRFSGVPDRFSGSGSGTDFTLKISRVEAEDVGVYYCSQNTHVPPTFGQGTKVEIERTVAAPSVFIFPPSDEQLKSGTASVVCLLNNFYPREAKVQWKVDNALQSGNSQESVTEQDSKDSTYSLSSTLTLSKADYEKHKVYACEVTHQGLSSPVTKSFNRGEC
notes: copies: 1 + 1 + 2
Consider B1, for which the “He/Con 3a” value is 153 % of GpH7-A5/GpH7-B3/GpL16-k0.

B2: GpH7-A5/GpH7-B3 variant K326_14T/GpL16-k0 (antibody, human IgG1, kappa)
heavy 1: not shown
heavy 2: not shown
light: DIVMTQSPLSLPVTPGEPASISCQASESLVHSNRNTYLHWYLQKPGQSPQLLIYKVSNRFSGVPDRFSGSGSGTDFTLKISRVEAEDVGVYYCSQNTHVPPTFGQGTKVEIERTVAAPSVFIFPPSDEQLKSGTASVVCLLNNFYPREAKVQWKVDNALQSGNSQESVTEQDSKDSTYSLSSTLTLSKADYEKHKVYACEVTHQGLSSPVTKSFNRGEC
notes: copies: 1 + 1 + 2
For B2, the “He/Con 3a” value was 140 % of GpH7-A5/GpH7-B3/GpL16-k0.

B3: GpH7-A5/GpH7-B3 variant K326_09D/GpL16-k0 (antibody, human IgG1, kappa)
heavy 1: not shown
heavy 2: not shown
light: DIVMTQSPLSLPVTPGEPASISCQASESLVHSNRNTYLHWYLQKPGQSPQLLIYKVSNRFSGVPDRFSGSGSGTDFTLKISRVEAEDVGVYYCSQNTHVPPTFGQGTKVEIERTVAAPSVFIFPPSDEQLKSGTASVVCLLNNFYPREAKVQWKVDNALQSGNSQESVTEQDSKDSTYSLSSTLTLSKADYEKHKVYACEVTHQGLSSPVTKSFNRGEC
notes: copies: 1 + 1 + 2
Consider B3, for which the “He/Con 3a” value is 148 % of GpH7-A5/GpH7-B3/GpL16-k0.

B4: GpH7-A5/GpH7-B3 variant K326_15Y/GpL16-k0 (antibody, human IgG1, kappa)
heavy 1: not shown
heavy 2: not shown
light: DIVMTQSPLSLPVTPGEPASISCQASESLVHSNRNTYLHWYLQKPGQSPQLLIYKVSNRFSGVPDRFSGSGSGTDFTLKISRVEAEDVGVYYCSQNTHVPPTFGQGTKVEIERTVAAPSVFIFPPSDEQLKSGTASVVCLLNNFYPREAKVQWKVDNALQSGNSQESVTEQDSKDSTYSLSSTLTLSKADYEKHKVYACEVTHQGLSSPVTKSFNRGEC
notes: copies: 1 + 1 + 2
Turning to B4, the “He/Con 3a” value is 124 % of GpH7-A5/GpH7-B3/GpL16-k0.

B5: GpH7-A5/GpH7-B3 variant K334_04F/GpL16-k0 (antibody, human IgG1, kappa)
heavy 1: not shown
heavy 2: not shown
light: DIVMTQSPLSLPVTPGEPASISCQASESLVHSNRNTYLHWYLQKPGQSPQLLIYKVSNRFSGVPDRFSGSGSGTDFTLKISRVEAEDVGVYYCSQNTHVPPTFGQGTKVEIERTVAAPSVFIFPPSDEQLKSGTASVVCLLNNFYPREAKVQWKVDNALQSGNSQESVTEQDSKDSTYSLSSTLTLSKADYEKHKVYACEVTHQGLSSPVTKSFNRGEC
notes: copies: 1 + 1 + 2
For the molecule B5, the “He/Con 3a” value is 152 % of GpH7-A5/GpH7-B3/GpL16-k0.

B6: GpH7-A5/GpH7-B3 variant K326_20W/GpL16-k0 (antibody, human IgG1, kappa)
heavy 1: not shown
heavy 2: not shown
light: DIVMTQSPLSLPVTPGEPASISCQASESLVHSNRNTYLHWYLQKPGQSPQLLIYKVSNRFSGVPDRFSGSGSGTDFTLKISRVEAEDVGVYYCSQNTHVPPTFGQGTKVEIERTVAAPSVFIFPPSDEQLKSGTASVVCLLNNFYPREAKVQWKVDNALQSGNSQESVTEQDSKDSTYSLSSTLTLSKADYEKHKVYACEVTHQGLSSPVTKSFNRGEC
notes: copies: 1 + 1 + 2
For B6, the “He/Con 3a” value is 93.7 % of GpH7-A5/GpH7-B3/GpL16-k0.

B7: GpH7-A5/GpH7-B3 variant K334_03V/GpL16-k0 (antibody, human IgG1, kappa)
heavy 1: not shown
heavy 2: not shown
light: DIVMTQSPLSLPVTPGEPASISCQASESLVHSNRNTYLHWYLQKPGQSPQLLIYKVSNRFSGVPDRFSGSGSGTDFTLKISRVEAEDVGVYYCSQNTHVPPTFGQGTKVEIERTVAAPSVFIFPPSDEQLKSGTASVVCLLNNFYPREAKVQWKVDNALQSGNSQESVTEQDSKDSTYSLSSTLTLSKADYEKHKVYACEVTHQGLSSPVTKSFNRGEC
notes: copies: 1 + 1 + 2
As to B7, the “He/Con 3a” value is 154 % of GpH7-A5/GpH7-B3/GpL16-k0.

B8: GpH7-A5/GpH7-B3 variant K326_19Q/GpL16-k0 (antibody, human IgG1, kappa)
heavy 1: not shown
heavy 2: not shown
light: DIVMTQSPLSLPVTPGEPASISCQASESLVHSNRNTYLHWYLQKPGQSPQLLIYKVSNRFSGVPDRFSGSGSGTDFTLKISRVEAEDVGVYYCSQNTHVPPTFGQGTKVEIERTVAAPSVFIFPPSDEQLKSGTASVVCLLNNFYPREAKVQWKVDNALQSGNSQESVTEQDSKDSTYSLSSTLTLSKADYEKHKVYACEVTHQGLSSPVTKSFNRGEC
notes: copies: 1 + 1 + 2
For B8, the “He/Con 3a” value is 117 % of GpH7-A5/GpH7-B3/GpL16-k0.

B9: GpH7-A5/GpH7-B3 variant K326_16H/GpL16-k0 (antibody, human IgG1, kappa)
heavy 1: not shown
heavy 2: not shown
light: DIVMTQSPLSLPVTPGEPASISCQASESLVHSNRNTYLHWYLQKPGQSPQLLIYKVSNRFSGVPDRFSGSGSGTDFTLKISRVEAEDVGVYYCSQNTHVPPTFGQGTKVEIERTVAAPSVFIFPPSDEQLKSGTASVVCLLNNFYPREAKVQWKVDNALQSGNSQESVTEQDSKDSTYSLSSTLTLSKADYEKHKVYACEVTHQGLSSPVTKSFNRGEC
notes: copies: 1 + 1 + 2
Consider B9, for which the “He/Con 3a” value is 106 % of GpH7-A5/GpH7-B3/GpL16-k0.

B10: GpH7-A5/GpH7-B3 variant K326_10E/GpL16-k0 (antibody, human IgG1, kappa)
heavy 1: not shown
heavy 2: not shown
light: DIVMTQSPLSLPVTPGEPASISCQASESLVHSNRNTYLHWYLQKPGQSPQLLIYKVSNRFSGVPDRFSGSGSGTDFTLKISRVEAEDVGVYYCSQNTHVPPTFGQGTKVEIERTVAAPSVFIFPPSDEQLKSGTASVVCLLNNFYPREAKVQWKVDNALQSGNSQESVTEQDSKDSTYSLSSTLTLSKADYEKHKVYACEVTHQGLSSPVTKSFNRGEC
notes: copies: 1 + 1 + 2
Regarding B10, the “He/Con 3a” value was 138 % of GpH7-A5/GpH7-B3/GpL16-k0.

B11: GpH7-A5/GpH7-B3 variant K326_18N/GpL16-k0 (antibody, human IgG1, kappa)
heavy 1: not shown
heavy 2: not shown
light: DIVMTQSPLSLPVTPGEPASISCQASESLVHSNRNTYLHWYLQKPGQSPQLLIYKVSNRFSGVPDRFSGSGSGTDFTLKISRVEAEDVGVYYCSQNTHVPPTFGQGTKVEIERTVAAPSVFIFPPSDEQLKSGTASVVCLLNNFYPREAKVQWKVDNALQSGNSQESVTEQDSKDSTYSLSSTLTLSKADYEKHKVYACEVTHQGLSSPVTKSFNRGEC
notes: copies: 1 + 1 + 2
On to B11, for which the “He/Con 3a” value was 134 % of GpH7-A5/GpH7-B3/GpL16-k0.

B12: GpH7-A5/GpH7-B3 variant K334_01G/GpL16-k0 (antibody, human IgG1, kappa)
heavy 1: not shown
heavy 2: not shown
light: DIVMTQSPLSLPVTPGEPASISCQASESLVHSNRNTYLHWYLQKPGQSPQLLIYKVSNRFSGVPDRFSGSGSGTDFTLKISRVEAEDVGVYYCSQNTHVPPTFGQGTKVEIERTVAAPSVFIFPPSDEQLKSGTASVVCLLNNFYPREAKVQWKVDNALQSGNSQESVTEQDSKDSTYSLSSTLTLSKADYEKHKVYACEVTHQGLSSPVTKSFNRGEC
notes: copies: 1 + 1 + 2
In the case of B12, the “He/Con 3a” value was 125 % of GpH7-A5/GpH7-B3/GpL16-k0.

B13: GpH7-A5/GpH7-B3 variant K334_02A/GpL16-k0 (antibody, human IgG1, kappa)
heavy 1: not shown
heavy 2: not shown
light: DIVMTQSPLSLPVTPGEPASISCQASESLVHSNRNTYLHWYLQKPGQSPQLLIYKVSNRFSGVPDRFSGSGSGTDFTLKISRVEAEDVGVYYCSQNTHVPPTFGQGTKVEIERTVAAPSVFIFPPSDEQLKSGTASVVCLLNNFYPREAKVQWKVDNALQSGNSQESVTEQDSKDSTYSLSSTLTLSKADYEKHKVYACEVTHQGLSSPVTKSFNRGEC
notes: copies: 1 + 1 + 2
As to B13, the “He/Con 3a” value is 152 % of GpH7-A5/GpH7-B3/GpL16-k0.

B14: GpH7-A5/GpH7-B3 variant K326_13S/GpL16-k0 (antibody, human IgG1, kappa)
heavy 1: not shown
heavy 2: not shown
light: DIVMTQSPLSLPVTPGEPASISCQASESLVHSNRNTYLHWYLQKPGQSPQLLIYKVSNRFSGVPDRFSGSGSGTDFTLKISRVEAEDVGVYYCSQNTHVPPTFGQGTKVEIERTVAAPSVFIFPPSDEQLKSGTASVVCLLNNFYPREAKVQWKVDNALQSGNSQESVTEQDSKDSTYSLSSTLTLSKADYEKHKVYACEVTHQGLSSPVTKSFNRGEC
notes: copies: 1 + 1 + 2
Consider B14, for which the “He/Con 3a” value is 118 % of GpH7-A5/GpH7-B3/GpL16-k0.

B15: GpH7-A5/GpH7-B3 variant K326_08L/GpL16-k0 (antibody, human IgG1, kappa)
heavy 1: not shown
heavy 2: not shown
light: DIVMTQSPLSLPVTPGEPASISCQASESLVHSNRNTYLHWYLQKPGQSPQLLIYKVSNRFSGVPDRFSGSGSGTDFTLKISRVEAEDVGVYYCSQNTHVPPTFGQGTKVEIERTVAAPSVFIFPPSDEQLKSGTASVVCLLNNFYPREAKVQWKVDNALQSGNSQESVTEQDSKDSTYSLSSTLTLSKADYEKHKVYACEVTHQGLSSPVTKSFNRGEC
notes: copies: 1 + 1 + 2
For B15, the “He/Con 3a” value was 126 % of GpH7-A5/GpH7-B3/GpL16-k0.

B16: GpH7-A5/GpH7-B3 variant K326_12R/GpL16-k0 (antibody, human IgG1, kappa)
heavy 1: not shown
heavy 2: not shown
light: DIVMTQSPLSLPVTPGEPASISCQASESLVHSNRNTYLHWYLQKPGQSPQLLIYKVSNRFSGVPDRFSGSGSGTDFTLKISRVEAEDVGVYYCSQNTHVPPTFGQGTKVEIERTVAAPSVFIFPPSDEQLKSGTASVVCLLNNFYPREAKVQWKVDNALQSGNSQESVTEQDSKDSTYSLSSTLTLSKADYEKHKVYACEVTHQGLSSPVTKSFNRGEC
notes: copies: 1 + 1 + 2
Regarding B16, the “He/Con 3a” value is 101 % of GpH7-A5/GpH7-B3/GpL16-k0.
